Assay results reported in the supplement of paper PMC12667976.

B1: library; numbered along this chain (parent)
chain: MATDAALRRLLRLHRTEIAVAVDSAFPLLHALADHDVVPEDKFQETLHLKEKEGCPQAFHALLSWLLTQDSTAILDFWRVLFKDYNLERYGRLQPILDSFPKDVDLSQPRKGRKPPAVPKALVPPPRLPTKRKASEEARAAAPAALTPRGTASPGSQLKAKPPKKPESSAEQQRLPLGNGIQTMSASVQRAVAMSSGDVPGARGAVEGILIQQVFESGGSKKCIQVGGEFYTPSKFEDSGSGKNKARSSSGPKPLVRAKGAQGAAPGGGEARLGQQGSVPAPLALPSDPQLHQKNEDECAVCRDGGELICCDGCPRAFHLACLSPPLREIPSGTWRCSSCLQATVQEVQPRAEEPRPQEPPVETPLPPGLRSAGEEVRGPPGEPLAGMDTTLVYKHLPAPPSAAPLPGLDSSALHPLLCVGPEGQQNLAPGARCGVCGDGTDVLRCTHCAAAFHWRCHFPAGTSRPGTGLRCRSCSGDVTPAPVEGVLAPSPARLAPGPAKDDTASHEPALHRDDLESLLSEHTFDGILQWAIQSMARPAAPFPS

Variants of: B1
Experiment: AIRE transcriptional activation functional score (insulin promoter-GFP; nonsense median 0, synonymous median 1) (normalised score); higher = higher AIRE activity (more reporter activation)
Details: with insulin promoter-GFP reporter in HEK293
Method: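 Deep mutational scan of full-length human AIRE (codon-optimized cDNA, DT-POPCode NNN libraries over three regions) integrated at a Bxb1 landing pad in HEK293 cells carrying an insulin core promoter-GFP reporter at a Flp-In site. Cells were sorted for the top 10% GFP about 14 days after transfection. Variant frequency log-ratios (select vs non-select, TileSeq) were rescaled so that the nonsense median is 0 and the synonymous median is 1, then averaged over biological replicates.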

AIRE transcriptional activation functional score: each site, then its substitutions
V188: M 1.32, P 0.629, Q 0.798, L 1.24, H 0.687, N 0.669, F 0.939, D 0.779, A 0.635, E 0.556, W 0.518, G 0.504, S 0.447, T 0.434, K 0.779, Y 1.56, C 0.891, I 1.01, R 0.52
G201: S 0.809, W 0.489, M 1.67, I 1.23, V 0.941, Q 1.05, P 0.598, L 1.32, Y 1.17, F 1.02, N 1.01, D 0.481, T 0.924, A 0.802, R 0.837, C 1.03, E 0.791, H 1.02, K 0.778
S196: P 0.792, T 0.82, G 0.938, R 1.16, H 1.01, W 0.394, I 0.678, M 0.982, E 1.06, C 1.24, Q 1.11, A 0.621, L 0.512, Y 0.776, D 0.944, N 0.962, V 1.27, F 0.117, K 0.809
A202: I 0.93, F 0.397, V 1.11, K 0.112, R 1.08, W 0.488, L 0.939, D 0.687, C 1.39, H 1, G 0.818, T 0.777, M 1.19, E 0.791, N 1.59, S 0.848, P 0.867, Q 0.415, Y 1.13
A191: M 0.662, L 0.166, N 0.144, F -0.339, R 1.2, H 1.25, K 0.485, C 1.08, P 0.647, Q 0.489, G 0.958, T 1.27, Y -0.337, W 0.116, D 0.948, V 0.157, E 0.164, I -0.149, S 1.03
R203: E -0.0204, S 0.794, W 0.289, F 0.572, V 1.57, G 0.547, P 1.03, T 0.744, Q 1.13, C 1.82, K 0.243, Y 0.581, N 0.0951, L 1.1, I 1.2, H 0.141, A 1.19
Q189: L 0.207, E 1.01, H 0.892, R 0.813, A 1.25, C 0.0413, T 0.669, P 0.54, V -0.071, K 0.969, D 0.724, W -1.03, M -0.352, S 1.21, F -0.181, G 0.415, N 0.838, I 0.169, Y 0.0452
V199: S 0.671, E 0.905, P 0.723, N 0.886, L 0.982, R 0.735, I 1.37, Q 0.755, T 0.462, H 0.599, K 0.754, G 1.09, F 1.24, W 0.623, Y 1.4, A 0.731, D 0.863, M 1.18, C 0.807
R190: H 0.858, S 0.821, W 0.069, E 0.705, P 0.955, D 0.292, I 0.118, M 0.19, L 0.356, A 0.878, F -0.277, N 1.15, V 0.094, K 0.53, Q 1.24, Y 0.797, T 0.755, C 0.414, G 0.592
A186: S 0.95, W 0.156, R 0.648, Y -0.165, N 0.421, K 0.646, I -0.146, Q 0.6, M 0.198, L 0.0294, H 0.849, V -0.207, P 0.846, T 0.873, G 0.548
M194: R 0.732, Q 0.907, V 1.31, T 0.367, G 0.75, I 1.08, D -0.299, L 0.99, P 0.602, Y 0.702, C 0.639, S 0.554, N 0.73, K 0.544, A 0.708, F 0.394, W 0.214, H 0.96, E 0.601
S195: W -0.0899, G 0.859, P 0.83, H 0.996, D 0.8, I 0.0828, N 0.649, R 1.13, M 0.346, L 0.116, C 0.945, Y 0.427, K 0.873, T 1.31, V 0.475, A 1.31, Q 0.659, E 0.862, F 0.0295
A193: C 1.39, M 0.563, K 0.858, Q 1.88, I 0.281, H 1.81, T 1.15, F 0.268, P 0.42, V 0.147, S 0.899, L 0.279, R 0.93, D 1.03, W -1.35, Y 1.05, G 0.791, E 0.394, N 1.14
S187: R 1.18, Y 0.152, H 1.28, W 0.0947, D 0.711, L 0.063, I 0.599, P 0.621, G 0.706, Q 0.823, C 0.918, E 0.48, V 0.398, K 0.853, F -0.0306, M 0.503, A 0.982, N 0.716, T 1.17
G197: K 0.734, P 1.23, F 0.852, M 0.448, S 1.12, D 0.624, A 0.912, I 1.09, W 0.323, V 1.14, C 1.17, H 0.619, E 0.192, L 1.06, N 1.26, Y 0.74, T 0.444, Q 0.484, R 1.01
V192: G 0.777, I 1.13, M 1.08, W 0.522, K 1.14, F 0.922, E 0.516, Y 1.19, S 0.697, R 0.721, D 0.613, T 0.917, N 0.244, H 0.776, C 0.889, L 1.02, Q 0.811, P 0.706, A 0.598
P200: A 0.713, L 1.12, N 1.12, K 0.571, R 0.99, C 1.43, V 0.795, Q 1.18, G 0.879, S 1.06, T 0.911, I 0.675, M 1.52, H 1.08, Y 0.0754, F 0.777, D 0.545
D198: M 1.02, V 0.978, T 1.51, F 0.583, G 1.08, N 1.09, S 1.19, H 0.856, K 0.684, I 0.948, L 0.549, A 1.03, P 0.58, R 0.663, Y 0.99, W -0.417, E 1.2, C 0.704, Q 0.627
